Common to all, as to experiment: NMR titration
In test [1] the target is human mono-ubiquitin, N-terminally 6xHis tagged (made in house, for NMR) (human) (UniProt P0CG48).
In test [2] the target is human CSNAP (CSN Acidic Protein), GST tag removed (human).
Test [3] has as its target human DSS1 (Deletion of Split-hand/Split-foot 1), GST tag removed (human).

Experimental findings from publication PMC8442969 are described below.

A word on the Kd: it is the concentration at which binding is half-saturated.

In test [1], “human DSS1 (Deletion of Split-hand/Split-foot 1), GST tag removed (natural protein)” returned a dissociation constant (Kd) of 430 µM.
On to “human mono-ubiquitin, N-terminally 6xHis tagged (made in house, for NMR) (from UniProt P0CG48 1-76) (natural protein)”, for which, in test [2], the KD(app), first of two groups of residues stood at 800 µM and the KD(app), second of two groups of residues came out at 2000 µM. In test [3], the KD of site UBS2 (apparent) was found to be 1800 µM.
